# Test results taken from US20100310573A1.
# Target: recombinant human CD4 (catalogue number: 514-CD/CF, manufactured by R&D Systems) (human) (UniProt P01730)
# Assay: SPR, Biacore T100; antibody captured on anti-mouse IgG chip, recombinant human CD4 flowed; 1:1 binding model
Kd [pM],koff [s⁻¹],kon [M⁻¹ s⁻¹],Substance
352,0.000156,444000,"13B8.2 (Beckman Coulter), commercially available anti-human CD4 mouse antibody"
2900,0.00306,1.05e+06,anti-CD4 mouse monoclonal antibody OKT4 (manufactured by BioLegend)
117,0.000129,1.1e+06,"Leu-3a (BD Biosciences), commercially available anti-human CD4 mouse antibody"
